Consider three substances from publication PMC12298754.

pIC50: −log10 of the molar value.

In test [1] the target is PD-L1 protein on 4T1 cells (programmed cell death ligand-1) (mouse (endogenous in 4T1)) (UniProt Q9EP73). Briefly: radioligand binding; competition on 4T1 cells adhered to 96-well plates, 37 °C, 1 h; [18F]AlF-NOTA-iPD-L1 constant at 1 ng/20 kBq; unlabeled peptides 10 to 0.00001 mM; washed with pH 7.4 buffer (0.1% BSA, 25 mM Tris-HCl, 1 mM CaCl2, 120 mM NaCl); corrected for non-specific binding with …; n = 3.

For test [2] the target is unchanged.

Chain of UniProt Q9EP73 (Q9EP73 19-290): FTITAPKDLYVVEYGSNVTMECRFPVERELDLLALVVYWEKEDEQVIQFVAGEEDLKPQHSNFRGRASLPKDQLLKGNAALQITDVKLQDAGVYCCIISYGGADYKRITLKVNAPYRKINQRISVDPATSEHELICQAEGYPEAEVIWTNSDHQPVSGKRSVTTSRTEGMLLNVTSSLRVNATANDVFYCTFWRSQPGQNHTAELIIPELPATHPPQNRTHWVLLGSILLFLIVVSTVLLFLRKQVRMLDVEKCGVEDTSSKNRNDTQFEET

In test [1], AlCl-NOTA-iPD-L1 (peptide) gave a pIC50 of 8.03. In test [1], WL12 (peptide) showed a pIC50 of 8.22.

Turning to [18F]AlF-NOTA-iPD-L1 (peptide), in test [2], the tumor uptake at 1 h in mice with 4T1 tumors that received a blocking dose of cold iPD-L1 30 min before (% ID/g) turned out to be 1.81 % ID/g; the tumor uptake in mice with induced PD-L1-positive 4T1 tumors, 1, 2 and 3 h after injection (% ID/g) is 6.54 % ID/g.

The term pIC50 denotes −log10 of the IC50, conventionally taken in molar units. Lower therefore signals a large IC50.
